Data taken from doi:10.1101/391136.

Tests used:
S100A1 [1] = experiment: ITC
S100A1 [2] = experiment: other fluorescence titration

- Kd (S100A1 [1]): 6.37 µM
- stoichiometry N (S100A1 [1]): 1
- Kd (S100A1 [2]): 10 µM
Substance: S100A4 (from UniProt P26447 4-101) (natural protein)
